Assay results taken from patent US20080138790A1 (priority 2004, published 2008).
Where two headings read alike, the source gives them in different places.

Columns and labels:
[1] = test system: rat; details: cited from earlier work
[2] = Percentage Met-Hb over time of stroma free hemoglobin with/without solvent-detergent; format: physicochemical
Procedure: (§1) The solvent-detergent treatment was performed at a concentration of 1% Tween 80 […] and 0.3% Tri-N-Butyl Phosphate […]. […] All testing was performed at neutral pH in phosphate buffered saline.
(§2) After treatment, the mixture was centrifuged at 8,000 rpm (4,600 g) for 6 minutes at room temperature.

[3] = Total Hb over time of stroma free hemoglobin with/without solvent-detergent; format: physicochemical
Procedure: as §1, §2

[4] = in vivo; cited from earlier work

CCCO [1-Propanol]
LD50 (oral-rat) ([1]; in vivo, po): 1900 mg/kg

CCC(C)=O [2-Butanone]
LD50 (oral-rat) ([1]; oral): 2700 mg/kg

CC(C)O [2-Propanol]
LD50 (oral-rat) ([1]; in vivo, po): 5000 mg/kg

CC#N [Acetonitrile]
LD50 (oral-rat) ([1]; oral): 3800 mg/kg

COCCOC [Dimethoxy- ethane (glyme), Dimethoxy- ethane]
LD50 (oral-rat) ([1]; oral): 10000 mg/kg

CCOC(C)=O [Ethyl acetate]
LD50 (oral-rat) ([1]; in vivo, po): 11000 mg/kg

CO [Methanol]
LD50 (oral-rat) ([1]; oral): 5600 mg/kg

SFH: stroma free hemoglobin prepared as in Example 1, 8.6-9.0 g % in PBS
Percentage Met-Hb ([2]; 2-6° C., 0 hrs): 2.15% | Percentage Met-Hb ([2]; 2-6° C., 1 hrs): 2.2% | Percentage Met-Hb ([2]; 2-6° C., 2 hrs): 2.25% | Percentage Met-Hb ([2]; 2-6° C., 3 hrs): 2.15% | Percentage Met-Hb ([2]; 2-6° C., 4 hrs): 2.1% | Percentage Met-Hb ([2]; 2-6° C., 5 hrs): 2.25% | Percentage Met-Hb ([2]; 21-23° C., 0 hrs): 2.2% | Percentage Met-Hb ([2]; 21-23° C., 1 hrs): 2.4% | Percentage Met-Hb ([2]; 21-23° C., 2 hrs): 2.45% | Percentage Met-Hb ([2]; 21-23° C., 3 hrs): 2.45% | Percentage Met-Hb ([2]; 21-23° C., 4 hrs): 2.6% | Percentage Met-Hb ([2]; 21-23° C., 5 hrs): 2.8% | Total Hb ([3]; 2-6° C., 0 hrs): 8.6 g % | Total Hb ([3]; 2-6° C., 1 hrs): 8.5 g % | Total Hb ([3]; 2-6° C., 2 hrs): 8.55 g % | Total Hb ([3]; 2-6° C., 3 hrs): 8.65 g % | Total Hb ([3]; 2-6° C., 4 hrs): 8.65 g % | Total Hb ([3]; 2-6° C., 5 hrs): 8.55 g % | Total Hb ([3]; 21-23° C., 0 hrs): 8.5 g % | Total Hb ([3]; 21-23° C., 1 hrs): 8.55 g % | Total Hb ([3]; 21-23° C., 2 hrs): 8.55 g % | Total Hb ([3]; 21-23° C., 3 hrs): 8.65 g % | Total Hb ([3]; 21-23° C., 4 hrs): 8.6 g % | Total Hb ([3]; 21-23° C., 5 hrs): 8.55 g %

conjugate of hemoglobin (with a molecular weight of 64,000) and dextran (having a molecular weight of 20,000): hemoglobin conjugated to dextran of molecular weight 20,000, reported by Blumenstein et al.
clearance from the circulation and through the kidneys [4]: cleared slowly from the circulation and negligibly through the kidneys
